Biological target: FKBP_C-term (FKBP fused at its C-terminal end to the C-terminal NanoLuc fragment N2)
Experiment: split reporter

luminescence without rapamycin as percent of that with rapamycin: 3%
Substance: FRB_N-term (FRB fused at its C-terminal end to the N-terminal NanoLuc fragment N1)
